Reference: the RNAGym collection of RNA variant scans (doi:10.1073/pnas.2313332121)

B1: TPR t1 (parent)
chain: GACCAAUCUGCCCUCAGAGCUCGAGAACAUCUUCGGAUGCAGAGGAGGCAGGCUUCGGUGGCGCGAUAGCGCCAACGUCCUCAACCUCCAAUGCAUCCCACCACAUGAUGAUGCCUGAAGAGCCUUGGUUUUUUG

Variants of: B1
Test: polymerase ribozyme fitness, log enrichment relative to wild type (log ratio); higher = more active; in vitro selection for triplet polymerase activity
Procedure, shortened: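 Fitness measures genotype enrichment against wild-type enrichment on a logarithmic scale, with inverse-variance-weighted averaging of replicates. The logarithm is base 2, and genotypes were kept only with ≥10 input reads and ≥1 read per output in Illumina sequencing. The sequenced libraries came from one triplicate in vitro selection round, including frozen incubation at −7 °C, of PCR-built, transcribed mutant libraries of each subunit of a heterodimeric triplet polymerase ribozyme.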

Which “polymerase ribozyme fitness (log ratio)” value does the source give for GACCAAUCAGCCCUCAGAGCUCGAGAACAUCUUCGGAUGCAGACGAGGCAGGCUCCGGUGGCGCGAUAGCGCCAACGUCCUCAACCUCCAAUGCAUCCCACCACAUGAGGAUGCCUGAAGAGCCUUGGUUUUUUG [U9A G44C U55C U109G] here?
The value was -4.29.

With GAUCAAUCUGCCCUCAGAGCUCGAGAACAUCUUCGGAUUCAGAGGAGGCAGGCUUCGGUGACGCGAUAGCGCCAACGUCCUCAACCUCCAAUCCAUCCCAACACAUGAUGAUGCCUGAAGAGCCUUGGUUUUUUG [C3U G39U G61A G93C C101A] as the variant, how does the “polymerase ribozyme fitness (log ratio)” value read?
Its value is -3.7.

Which “polymerase ribozyme fitness (log ratio)” value does the source give for GACCAAUCUGCCCUCAGAGCUCGAGAACAUCUUCGGAUGCAGAGGAGGCAGGCUUCGGUGGCGCGAUAGGGCCAACGUCCUCAACCUCCAAUGCAUCCCACCACAUGAUGAUGCCUGAAGAACCUUGGUUUUUUG [C70G G122A] here?
The value was -3.06.

Which “polymerase ribozyme fitness (log ratio)” value does the source give for GACCAAUCUGCCCUCAGAACUAGAGAACAUCUUCGGAUGCAGAGGAGGCAGGCUUCGGUGGCGCGAUAGCGCCAACGUCCUCAACCUCCAAUGCAUCCCACCACAUGAUGAUCCCUGAAGAGCCUUGGUUUUUUG [G19A C22A G113C] here?
The value was -4.67.

Which “polymerase ribozyme fitness (log ratio)” value does the source give for GACCAAUCUGCCCUCAGAGCUCGAGAACAUCUUCGGAUGCAGAGGAGGCAGGCUUCGGUGGCGCGAUAGCGCCAACGUCCUCAACCUCCACUGCAUCCCACCACAUGAUGAUGCCUGAAGAGCCUUAGUUUUUUG [A91C G127A] here?
The value was -2.15.

For GACCAAUCUGCUCUCAGAGCUCGAGAACAUCUUCGGAUGCAGAGGAGGCAGGCUUCGGUGGCGCGAUAGUGCCAACGUCCUCAACCUCCAAUGCAUCCCACCACAUGAUGAUGCCUGAAGAGCCUUGGUUUUUUG [C12U C70U], which “polymerase ribozyme fitness (log ratio)” value is on record?
The value was 0.3.

For GACCAAUCUUCCCUCAGAGCUCGAGAACAUCUUCGGAUGCAGAGGAGGCAGGCUUCGGUGGCGCGAUAGCGCCAACGUCCUCAACCUCCAAUGCAUCCCACCACAUGAUGAUGCCUGAAGAGCCUUGUUUUCUUG [G10U G128U U132C], which “polymerase ribozyme fitness (log ratio)” value is on record?
Its value is -0.604.

For GACCAAUCUGCCCUCAGAGCUCGAGAACAUCUUCGGAUGCAGAGGUGGCAGGCUUCGGUGGCGCGAUAGUGCCAACGUCCUCAACCUCCAAUGCAUCCCACCACAUGAUGAUGCCUGAAGAGCCUUGGUUUUUUG [A46U C70U], which “polymerase ribozyme fitness (log ratio)” value is on record?
Its value is -1.31.

For GACCAAUCUGCCCUCAGAGCUCGAGAACAUCUUCGGAUGAAGAGGAGGCAGGCGUCGGUGGUGCGAUAGCGCCAACGUCCUCAACCUCCAAUGCAUCCCACCACAUGAUGAUGCCUGAAGAGCCUUGGUUUUUUG [C40A U54G C62U], which “polymerase ribozyme fitness (log ratio)” value is on record?
Its value is -1.83.

For GACCAAUCUACCUUCAGAGCUCGAGAACAUCUUCGGAUGCAGAGGAGGCAGGCUACGGUGGCGCGAUAGCGCCAAUGUCCUCAACCUCCAAUGCAUACCACCACAUGAUGAUGCCGGAAGAGCCUUGGUUUUUUG [G10A C13U U55A C76U C97A U116G], which “polymerase ribozyme fitness (log ratio)” value is on record?
The value was -6.1.

Which “polymerase ribozyme fitness (log ratio)” value does the source give for GACCAAUCUGACCUCAGAGCUCGAGAACGUCUUCGGAUGCAGAGGAGGCAGGCUUGGGUGGCGCGAUAGCGCCAACGUCCUCAACCUCCACUGCAUCCCACCACAUGAUGAAGCCUGAAGGCCCUUGGUUUUUUG [C11A A29G C56G A91C U112A A121G G122C] here?
The value was -1.75.

For GACCAAUCUGCCCUCAGAGCUCGAGAACAUCUUCGGAUGCAGAGGAGGUAGGCUUAGGUGGCGCGAUAGCGCCAACGUCCUCAACCUCCAAUGCAUCCCACCACAUGAUGAUGCCUGAAGAGCCUUGGUUUUUUG [C49U C56A], which “polymerase ribozyme fitness (log ratio)” value is on record?
Its value is -1.

Which “polymerase ribozyme fitness (log ratio)” value does the source give for GACCAAUCUGGCCUCAGAGCUCGAGAACUUCUUCGGAUGCAGAGGAGGCAGGCUUCGGUGGCGCGAUAGCGCCAACGUCCUCAACCUCCAAUGCAUCCCACCACAUGAUGAUGCCUCAAGAGCCUUGGUUUUUUG [C11G A29U G117C] here?
Its value is -3.19.

Which “polymerase ribozyme fitness (log ratio)” value does the source give for GACUAAUCUGCCCUCAGAGCUGGAGAACAUCUUCGGAUGCAGAGGAGACAGGCUUCGGUGGCGCGAUAGCGCCAACGUCCUCAACCUCAAAUGCAUCCCACCACAUGAUGAUGCCUGAAGAGCAUUGGUUUUUUG [C4U C22G G48A C89A C124A] here?
Its value is -3.16.

With GACCAAUAUGCGCUCAGAGCUCUAGAACAUCUUCGGAUGCAGAGGAGGCAGGCUUCGGUGGCGCGAUAGCUCCAACGUCCUCAACUUCCAAUGCAUCCCACCACAUGAUGAUGCCUGAACAGCCUUGGUUUUUUG [C8A C12G G23U G71U C86U G120C] as the variant, how does the “polymerase ribozyme fitness (log ratio)” value read?
The value was -5.74.

For GACCAAUCUGCCCUCAGAGCUCGAGAACAUCUUCGGAUGAAGAGGAGGCAGGCUUCGGUGGCGUGAUAGCGCCAACGUCCUCAAACUCCAAUGCAUCCCACAACAUGAUGAGGCCUGAAGAGUCUUGGUUUUUUG [C40A C64U C85A C102A U112G C123U], which “polymerase ribozyme fitness (log ratio)” value is on record?
Its value is -5.99.

Which “polymerase ribozyme fitness (log ratio)” value does the source give for GACUAAUCUCCCCUCAGAGCUCGAGAACAUCUUCGGAUGCAGAGGAGGCAGGCUUCGGUGGCGCGAUAUCGCCAACGUCCUCAACCUCCAAUGCAUCCCACCACAUGAUGAUGCCUGAAGAGCCAUGGUUUUUUG [C4U G10C G69U U125A] here?
The value was -2.15.

Which “polymerase ribozyme fitness (log ratio)” value does the source give for GACCAAUCUGCCCUCAGAGCUCGAGAACAUCUUCGGAUGCAGAGGAGGCAGGCUUCGGUAGCGCGAUAGCGCCAACGUCCUCAACCUCCAAUGCAUCCCACCACAUGAUGAUGCCUGAAGAGCCUUAGUUUUUUG [G60A G127A] here?
Its value is -0.964.

Which “polymerase ribozyme fitness (log ratio)” value does the source give for GACCAAUCUGCCCUCAGAGCUCGAGAACAUCUUCGGAGGCAGAGGAGGCAGGCUUCGGUAGCGCGAUAGCGCCAACGUCCUCAACCUCCAAUGCAUCCCACCACAUGAUCAUGCCUGAAGAGCCAUGGUUUUUUG [U38G G60A G110C U125A] here?
The value was -6.15.

With GAGCAAUCUGCCCUCAGAGCUCGAGAACAUCUUCGGAUGCAGAGGAGGCAGGCUUCGGUGGCGCGAUAGCGCCAACGUCCUCAACCUCCAAUGCAUCCCACCACAUGAUGAUGCCUGAGGAGCCUUGGUUUUUUG [C3G A119G] as the variant, how does the “polymerase ribozyme fitness (log ratio)” value read?
The value was -0.446.

For GACCAAUCUGCCCUCAGAGCUCGAGAACAUCUUCGGAUGCAGAGCAGGCAGGCUUCGGUGGCGCGAUAGCGACAACGUCCUCAACCUCCAAUGCAUCCCACCACAUGAUGAUGCCUGAAGAGCCUUGGUUUUUUC [G45C C72A G135C], which “polymerase ribozyme fitness (log ratio)” value is on record?
Its value is -0.387.
